Results published in US20190201542A1, “ANTI-DLL3 DRUG CONJUGATES FOR TREATING TUMORS AT RISK OF NEUROENDOCRINE TRANSITION” (ABBVIE STEMCENTRX LLC, priority 2016, published 2019).

Molecular target: T1, DLL3 (Homo sapiens, UniProt Q9NYJ7)
T1 sequence (Q9NYJ7 27-618): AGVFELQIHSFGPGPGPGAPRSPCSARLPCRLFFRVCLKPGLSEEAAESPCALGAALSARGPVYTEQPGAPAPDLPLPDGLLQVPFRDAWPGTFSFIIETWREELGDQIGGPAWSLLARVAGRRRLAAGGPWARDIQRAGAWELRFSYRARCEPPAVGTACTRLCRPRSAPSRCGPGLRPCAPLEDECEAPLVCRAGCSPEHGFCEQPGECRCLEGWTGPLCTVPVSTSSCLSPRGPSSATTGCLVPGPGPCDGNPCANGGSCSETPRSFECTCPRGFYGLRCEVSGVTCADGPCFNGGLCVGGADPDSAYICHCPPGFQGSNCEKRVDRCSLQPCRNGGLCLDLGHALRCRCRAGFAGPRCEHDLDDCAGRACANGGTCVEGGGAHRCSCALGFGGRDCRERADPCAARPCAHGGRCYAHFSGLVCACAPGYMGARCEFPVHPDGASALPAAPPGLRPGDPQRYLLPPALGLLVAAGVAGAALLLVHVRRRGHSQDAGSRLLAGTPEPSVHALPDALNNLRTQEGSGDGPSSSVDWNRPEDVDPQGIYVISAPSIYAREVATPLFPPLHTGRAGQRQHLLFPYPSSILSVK
Experiment: Binning (competitive antibody binding)
Text: It is also possible to characterize the antibodies of the invention in terms of the group or “bin” to which they belong. “Binning” refers to the use of competitive antibody binding assays to identify pairs of antibodies that are incapable of binding an immunogenic determinant simultaneously, thereby identifying antibodies that “compete” for binding. Competing antibodies may be determined by an assay in which the antibody or immunologically functional fragment being tested prevents or inhibits specific binding of a reference antibody to a common antigen. Typically, such an assay involves the use of purified antigen (e.g., DLL3, ASCL1, or a domain or fragment thereof) bound to a solid surface or cells, an unlabeled test antibody and a labeled reference antibody. Competitive inhibition is measured by determining the amount of label bound to the solid surface or cells in the presence of the test antibody. Additional details regarding methods for determining competitive binding are provided in the Examples herein. […]
A schematic summary of the domain-level epitope mapping data of the antibodies tested is presented in FIG. 2, with antibodies binding a linear epitope underlined and, where determined, the corresponding bin noted in parenthesis. […]

Binning with SC16.34 or SC16.56: not to bin with SC16.34 or SC16.56
B1: SC16.23: murine anti-DLL3 antibody (antibody, V domains shown)
VL: QIVLTQSPAIMSASPGEKVTLTCSASSSVSSRYLYWYQQKPGSSPKLWIYSTSNLASGVPARFSGSGSGTSYSLIISSMEAEDAASYFCHQWSNYPLTFGAGTKLELK
VH: QVTLKESGPGILQPSQTLSLTCSFSGFSLSTSNTGIGWIRQPSGTGLEWLAHIWWNDDKYYNPSLKSRLTISKETSNNQVFLKITNVDTADTASYFCVQIGRDYSNYAWYFDVWGAGTTVTVSS
